Tests used:
[1] = biological target: transcription intermediary factor-2 (TIF2), full length (human, UniProt Q15596 1-1464); test: cell-based or functional assay
GAL/STAMP(834C) = biological target: T1, GAL/STAMP(834C) (human, UniProt P04386 1-147 (Saccharomyces cerevisiae entry)); test: mammalian two-hybrid (data not shown)
T1 construct: domain: GAL-DBD; Mammalian two-hybrid construct; also called GAL fused to STAMP834C

GAL/STAMP(N834) = biological target: T2, GAL/STAMP(N834) (human); test: mammalian two-hybrid ±1 µM Dex (FIG. 6B)
T2 construct: domain: GAL-DBD; Mammalian two-hybrid construct; also called GAL/N834

GAL/STAMP(623-834) = biological target: T3, GAL/STAMP(623-834) (human); test: mammalian two-hybrid in CV-1 cells
T3 construct: domain: GAL-DBD; Expressed in CV-1 cells for the mammalian two-hybrid assay; also called Gal/6-6CL1

[2] = biological target: T4, STAMP amino terminal fragment (N623), in vitro translated (human, UniProt Q6EMB2 5-627, [35S]methionine labeled); test: GST pulldown, autoradiography (FIG. 7A)
T4 sequence: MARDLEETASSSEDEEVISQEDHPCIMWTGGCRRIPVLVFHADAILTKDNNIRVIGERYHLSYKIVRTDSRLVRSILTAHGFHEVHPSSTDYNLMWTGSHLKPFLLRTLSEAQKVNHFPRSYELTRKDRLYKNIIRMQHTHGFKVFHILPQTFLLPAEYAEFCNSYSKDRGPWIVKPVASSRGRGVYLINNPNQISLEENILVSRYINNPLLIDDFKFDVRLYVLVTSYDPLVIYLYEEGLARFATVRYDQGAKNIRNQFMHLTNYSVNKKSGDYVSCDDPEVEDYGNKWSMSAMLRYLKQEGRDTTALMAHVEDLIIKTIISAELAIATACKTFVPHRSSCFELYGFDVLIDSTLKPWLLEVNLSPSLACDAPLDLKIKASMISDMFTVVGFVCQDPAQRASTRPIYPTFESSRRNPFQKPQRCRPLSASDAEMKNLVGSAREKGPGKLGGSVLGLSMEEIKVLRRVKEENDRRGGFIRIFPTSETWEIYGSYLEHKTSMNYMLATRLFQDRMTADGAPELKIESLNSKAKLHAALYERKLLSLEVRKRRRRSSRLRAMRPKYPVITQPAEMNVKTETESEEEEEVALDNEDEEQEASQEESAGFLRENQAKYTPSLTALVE

[3] = biological target: T5, STAMP C-terminal fragment (834C), in vitro translated (human, UniProt Q6EMB2 838-1281, [35S]methionine labeled); test: GST pulldown, autoradiography (FIG. 7A)
T5 sequence: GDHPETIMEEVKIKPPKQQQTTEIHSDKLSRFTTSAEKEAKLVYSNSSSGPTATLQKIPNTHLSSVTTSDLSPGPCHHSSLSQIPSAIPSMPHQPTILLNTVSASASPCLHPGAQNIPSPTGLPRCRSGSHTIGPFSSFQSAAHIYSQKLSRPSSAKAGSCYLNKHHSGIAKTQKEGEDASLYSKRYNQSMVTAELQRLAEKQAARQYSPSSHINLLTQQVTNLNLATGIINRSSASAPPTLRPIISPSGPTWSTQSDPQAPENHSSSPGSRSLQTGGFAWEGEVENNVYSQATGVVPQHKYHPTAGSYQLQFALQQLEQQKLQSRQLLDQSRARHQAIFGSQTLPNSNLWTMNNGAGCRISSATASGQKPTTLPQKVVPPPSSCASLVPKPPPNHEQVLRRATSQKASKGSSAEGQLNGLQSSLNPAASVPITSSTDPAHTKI

B1: full length STAMP (SRC-1 and TIF2 Associated Modulatory Protein) (other)
chain: MARDLEETASSSEDEEVISQEDHPCIMWTGGCRRIPVLVFHADAILTKDNNIRVIGERYHLSYKIVRTDSRLVRSILTAHGFHEVHPSSTDYNLMWTGSHLKPFLLRTLSEAQKVNHFPRSYELTRKDRLYKNIIRMQHTHGFKVFHILPQTFLLPAEYAEFCNSYSKDRGPWIVKPVASSRGRGVYLINNPNQISLEENILVSRYINNPLLIDDFKFDVRLYVLVTSYDPLVIYLYEEGLARFATVRYDQGAKNIRNQFMHLTNYSVNKKSGDYVSCDDPEVEDYGNKWSMSAMLRYLKQEGRDTTALMAHVEDLIIKTIISAELAIATACKTFVPHRSSCFELYGFDVLIDSTLKPWLLEVNLSPSLACDAPLDLKIKASMISDMFTVVGFVCQDPAQRASTRPIYPTFESSRRNPFQKPQRCRPLSASDAEMKNLVGSAREKGPGKLGGSVLGLSMEEIKVLRRVKEENDRRGGFIRIFPTSETWEIYGSYLEHKTSMNYMLATRLFQDRMTADGAPELKIESLNSKAKLHAALYERKLLSLEVRKRRRRSSRLRAMRPKYPVITQPAEMNVKTETESEEEEEVALDNEDEEQEASQEESAGFLRENQAKYTPSLTALVENTPKENSMKVREWNNKGGHCCKLETQELEPKFNLMQILQDNGNLSKMQARIAFSAYLQHVQIRLMKDSGGQTFSASWAAKEDEQMELVVRFLKRASNNLQHSLRMVLPSRRLALLERRRILAHQLGDFIIVYNKETEQMAEKKSKKKVEEEEEDGVNMENFQEFIRQASEAELEEVLTFYTQKNKSASVFLGTHSKISKNNNNYSDSGAKGDHPETIMEEVKIKPPKQQQTTEIHSDKLSRFTTSAEKEAKLVYSNSSSGPTATLQKIPNTHLSSVTTSDLSPGPCHHSSLSQIPSAIPSMPHQPTILLNTVSASASPCLHPGAQNIPSPTGLPRCRSGSHTIGPFSSFQSAAHIYSQKLSRPSSAKAGSCYLNKHHSGIAKTQKEGEDASLYSKRYNQSMVTAELQRLAEKQAARQYSPSSHINLLTQQVTNLNLATGIINRSSASAPPTLRPIISPSGPTWSTQSDPQAPENHSSSPGSRSLQTGGFAWEGEVENNVYSQATGVVPQHKYHPTAGSYQLQFALQQLEQQKLQSRQLLDQSRARHQAIFGSQTLPNSNLWTMNNGAGCRISSATASGQKPTTLPQKVVPPPSSCASLVPKPPPNHEQVLRRATSQKASKGSSAEGQLNGLQSSLNPAASVPITSSTDPAHTKI
With B1 the “fold repression by Dex of the PMA-induced AP-1/Luc reporter in U2OS.rGR cells (STAMP added, no TIF2 added)” value [1] was 16 fold and the “fold repression by Dex of the PMA-induced AP-1/Luc reporter in U2OS.rGR cells (STAMP plus TIF2 added)” value [1] was about 31 fold.

B2: GR C-terminal half (407C) (receptor, UniProt P06536 407-795, looked up, not shown: large carriers)
chain: SVFSNGYSSPGMRPDVSSPPSSSSAATGPPPKLCLVCSDEASGCHYGVLTCGSCKVFFKRAVEGQHNYLCAGRNDCIIDKIRRKNCPACRYRKCLQAGMNLEARKTKKKIKGIQQATAGVSQDTSENPNKTIVPAALPQLTPTLVSLLEVIEPEVLYAGYDSSVPDSAWRIMTTLNMLGGRQVIAAVKWAKAILGLRNLHLDDQMTLLQYSWMFLMAFALGWRSYRQSSGNLLCFAPDLIINEQRMSLPCMYDQCKHMLFVSSELQRLQVSYEEYLCMKTLLLLSSVPKEGLKSQELFDEIRMTYIKELGKAIVKREGNSSQNWQRFYQLTKLLDSMHEVVENLLTYCFQTFLDKTMSIEFPEMLAEIITNQIPKYSNGNIKKLLFHQK
notes: also called GR407C
B2: no binding (GAL/STAMP(834C)).

B3: GR N-terminal half (N523) (receptor, UniProt P06536 1-523, looked up, not shown: large carriers)
chain: MDSKESLAPPGRDEVPGSLLGQGRGSVMDFYKSLRGGATVKVSASSPSVAAASQADSKQQRILLDFSKGSTSNVQQRQQQQQQQQQQQQQQQQQQQPDLSKAVSLSMGLYMGETETKVMGNDLGYPQQGQLGLSSGETDFRLLEESIANLNRSTSVPENPKSSTSATGCATPTEKEFPKTHSDASSEQQNRKSQTGTNGGSVKLYPTDQSTFDLLKDLEFSAGSPSKDTNESPWRSDLLIDENLLSPLAGEDDPFLLEGNTNEDCKPLILPDTKPKIKDTGDTILSSPSSVALPQVKTEKDDFIELCTPGVIKQEKLGPVYCQASFSGTNIIGNKMSAISVHGVSTSGGQMYHYDMNTASLSQQQDQKPVFNVIPPIPVGSENWNRCQGSGEDSLTSLGALNFPGRSVFSNGYSSPGMRPDVSSPPSSSSAATGPPPKLCLVCSDEASGCHYGVLTCGSCKVFFKRAVEGQHNYLCAGRNDCIIDKIRRKNCPACRYRKCLQAGMNLEARKTKKKIKGIQQAT
notes: domain: N-terminal half (N523)
B3: no binding (GAL/STAMP(834C)).

B4: VP16/GR (receptor)
chain: MDSKESLAPPGRDEVPGSLLGQGRGSVMDFYKSLRGGATVKVSASSPSVAAASQADSKQQRILLDFSKGSTSNVQQRQQQQQQQQQQQQQQQQQQQPDLSKAVSLSMGLYMGETETKVMGNDLGYPQQGQLGLSSGETDFRLLEESIANLNRSTSVPENPKSSTSATGCATPTEKEFPKTHSDASSEQQNRKSQTGTNGGSVKLYPTDQSTFDLLKDLEFSAGSPSKDTNESPWRSDLLIDENLLSPLAGEDDPFLLEGNTNEDCKPLILPDTKPKIKDTGDTILSSPSSVALPQVKTEKDDFIELCTPGVIKQEKLGPVYCQASFSGTNIIGNKMSAISVHGVSTSGGQMYHYDMNTASLSQQQDQKPVFNVIPPIPVGSENWNRCQGSGEDSLTSLGALNFPGRSVFSNGYSSPGMRPDVSSPPSSSSAATGPPPKLCLVCSDEASGCHYGVLTCGSCKVFFKRAVEGQHNYLCAGRNDCIIDKIRRKNCPACRYRKCLQAGMNLEARKTKKKIKGIQQATAGVSQDTSENPNKTIVPAALPQLTPTLVSLLEVIEPEVLYAGYDSSVPDSAWRIMTTLNMLGGRQVIAAVKWAKAILGLRNLHLDDQMTLLQYSWMFLMAFALGWRSYRQSSGNLLCFAPDLIINEQRMSLPCMYDQCKHMLFVSSELQRLQVSYEEYLCMKTLLLLSSVPKEGLKSQELFDEIRMTYIKELGKAIVKREGNSSQNWQRFYQLTKLLDSMHEVVENLLTYCFQTFLDKTMSIEFPEMLAEIITNQIPKYSNGNIKKLLFHQK
notes: Assayed with and without 1 µM Dex
B4: no binding (GAL/STAMP(N834)).

B5: VP16/TIF2(1140C) (other)
chain: QAQMAQGSYSPMQDPNFHTMGQRPSYATLRMQPRPGLRPTGLVQNQPNQLRLQLQHRLQAQQNRQPLMNQISNVSNVNLTLRPGVPTQAPINAQMLAQRQREILNQHLRQRQMHQQQQVQQRTLMMRGQGLNMTPSMVAPSGMPATMSNPRIPQANAQQFPFPPNYGISQQPDPGFTGATTPQSPLMSPRMAHTQSPMMQQSQANPAYQAPSDINGWAQGNMGGNSMFSQQSPPHFGQQANTSMYSNNMNINVSMATNTGGMSSMNQMTGQISMTSVTSVPTSGLSSMGPEQVNDPALRGGNLFPNQLPGMDMIKQEGDTTRKYC
B5: no binding (GAL/STAMP(623-834)).

B6: GST/TIF2.4 (other)
chain: ERADGQSRLHDSKGQTKLLQLLTTKSDQMEPSPLASSLSDTNKDSTGSLPGSGSTHGTSLKEKHKILHRLLQDSSSPVDLAKLTAEATGKDLSQESSSTAPGSEVTIKQEPVSPKKKENALLRYLLDKDDTKDIGLPEITPKLERLDSKTDPASNTKLIAMKTEKEEMSFEPGDQPGSELDNLEEILDDLQNSQLPQLFPDTRPGAPAGSVDKQAIINDLMQLTAENSPVTPVGAQKTALRISQSTFNNPRPGQLGRLLPNQNLPLDITLQSPTGAGPFPPIRNSSPYSVIPQPGMMGNQGMIGNQGNLGNSSTGMIGNSASRPTMPSGEWAPQSSAVRVTCAATTSAMNRPVQGGMIRNPAASIPMRPSSQPGQRQTLQSQVMNIG
notes: Bacterially expressed, immobilized on glutathione-Sepharose beads; The text gives no limits for TIF2.4, so the whole TIF2 entry is named; not shown: glutathione S-transferase (GST) of a pGEX plasmid
B6: no binding [2]; no binding [3].
